Laboratory results from PMC4895024.
Values belong to the substance of their own block, whether it stands above or below them.

How the values were obtained:
[1] = target: integrin αvβ3 on HUVEC cells, P06756;P05106; assay: cell attachment assay (cells on protein-coated plate)
[2] = target: integrin αvβ3 exogenously expressed on CHO and COS-7 cells, P06756;P05106; assay: as above; settings: read off a plot
[3] = target: integrin αIIbβ3 exogenously expressed on CHO and COS-7 cells, P08514;P05106; assay: as above; settings: read off a plot
[4] = target: ProAgio (D1-CD2 variant 3) (UniProt P06729); assay: as above; settings: CHO cells expressing αvβ3 wild type or β3-KKQ; parent: est. 190; read off a plot; scale: cells attached/field
[5] = target: ProAgio (D1-CD2 variant 3) (not stated (human and rat D1-CD2 are named)) (UniProt P06729); assay: cell attachment assay; culture plates coated with ProAgio; cells cultured 35 min, washed three times, attached cells counted per view field; some runs with 5 μM Cilengitide or 40 μg/ml antibody LM609
Chain of ProAgio (D1-CD2 variant 3) (not stated (human and rat D1-CD2 are named)) (P06729 25-206, change not shown): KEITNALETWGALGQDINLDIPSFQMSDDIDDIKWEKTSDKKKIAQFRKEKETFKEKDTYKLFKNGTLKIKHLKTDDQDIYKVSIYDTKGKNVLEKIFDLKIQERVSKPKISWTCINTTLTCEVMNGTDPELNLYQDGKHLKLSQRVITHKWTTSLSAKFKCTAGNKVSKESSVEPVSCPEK

response (cells attached/field) ([1]; 40 μg ml−1 antibody LM609 (bar is labelled 'Cilengitide' in the image), read off a plot): 280
response (cells attached/field) ([1]; BSA as control, read off a plot): 310
response (cells attached/field) ([1]; IgG as control, read off a plot): 340
response (cells attached/field) ([1]; in the presence of 5 μM of Cilengitide, read off a plot): 230
response (cells attached/field) ([1]; parent: est. 45, read off a plot): 290
response (cells attached/field) ([2]; CHO cells expressing αvβ3 (CHOαVβ3), parent: est. 100): 350
response (cells attached/field) ([2]; CHO cells expressing αvβ3): 280
response (cells attached/field) ([2]; COS-7 cells expressing αvβ3 (COS7αVβ3), parent: est. 90): 310
response (cells attached/field) ([2]; COS-7 cells expressing αvβ3): 350
response (cells attached/field) ([3]; CHO cells expressing αIIbβ3): 50
response (cells attached/field) ([3]; COS-7 cells expressing αIIbβ3): 50
Substance: D1-CD2 D99N; I102V; Q103I; E104I; E83T; T9V; W10Q; G11M; A12K

response [4]: 44
Substance: integrin αvβ3 exogenously expressed on CHO and COS-7 cells (from UniProt P06756;P05106) β3-KKQ

fold less attachment than αvβ3-expressing cells [5]: > 3 fold
Substance: integrin αvβ5 expressed on COS-7 cells (from UniProt P06756 31-1048; P18084 24-799) (receptor)
